Test results published in patent publication US20200079833A1 (AstraZeneca / MedImmune, published 2020).
Starred links: 1 amine or outer side, 2 acyl side, 3 side chain; linkers in the order of their positions; H or OH if unused. Non-standard residues stand in square brackets, D forms with d. Groups on a side chain read outwards from the residue. No end group written: not given here. *: point of attachment. γGlu = O=C(O)[C@H](CCC(=O)[*:2])N[*:1]; Palmitoyl = CCCCCCCCCCCCCCCC(=O)*; αMeF = C[C@](N)(Cc1ccccc1)C(=O)O; αMeK = C[C@](N)(CCCCN)C(=O)O; αMeS = C[C@](N)(CO)C(=O)O; Aib = CC(C)(N)C(=O)O

T1: glucose-dependent insulinotropic peptide (gastric inhibitory polypeptide) receptor (human, UniProt P48546 22-466)
T1 sequence (looked up): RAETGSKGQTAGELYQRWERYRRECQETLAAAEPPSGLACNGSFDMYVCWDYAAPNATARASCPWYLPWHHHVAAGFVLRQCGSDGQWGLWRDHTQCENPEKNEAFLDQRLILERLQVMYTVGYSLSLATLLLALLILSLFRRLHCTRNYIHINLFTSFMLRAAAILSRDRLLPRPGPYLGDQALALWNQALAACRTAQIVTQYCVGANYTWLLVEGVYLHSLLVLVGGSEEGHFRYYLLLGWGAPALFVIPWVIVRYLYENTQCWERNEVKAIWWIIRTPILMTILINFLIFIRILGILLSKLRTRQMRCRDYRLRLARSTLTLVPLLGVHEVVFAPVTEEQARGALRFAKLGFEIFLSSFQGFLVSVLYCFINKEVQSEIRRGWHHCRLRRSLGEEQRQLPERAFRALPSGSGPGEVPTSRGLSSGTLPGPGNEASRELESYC


Key:
Experiment in all cases: cell-based or functional assay
glucagon receptor = glucagon receptor (human, UniProt P47871 26-477)
GLP-1 receptor = GLP-1 receptor (human, UniProt P43220 24-463)
[1] = target: T1, glucose-dependent insulinotropic …

glucagon receptor, sequence (P47871 26-477): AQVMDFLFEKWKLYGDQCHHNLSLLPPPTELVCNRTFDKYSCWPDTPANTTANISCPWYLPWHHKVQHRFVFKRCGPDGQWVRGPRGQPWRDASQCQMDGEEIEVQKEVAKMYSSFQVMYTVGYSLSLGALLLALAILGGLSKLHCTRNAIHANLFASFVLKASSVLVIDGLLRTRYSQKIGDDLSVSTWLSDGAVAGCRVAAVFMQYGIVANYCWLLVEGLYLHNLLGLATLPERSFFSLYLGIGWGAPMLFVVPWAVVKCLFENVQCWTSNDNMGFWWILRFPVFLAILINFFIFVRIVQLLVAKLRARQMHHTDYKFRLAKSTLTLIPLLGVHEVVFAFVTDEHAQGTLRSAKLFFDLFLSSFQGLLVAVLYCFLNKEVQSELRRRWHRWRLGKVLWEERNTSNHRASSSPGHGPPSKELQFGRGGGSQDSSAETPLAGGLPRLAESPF

Row | Binder | Primary assay EC50 (cAMP), n1 (glucagon receptor) [nM] | Primary assay EC50 (cAMP), n2 (glucagon receptor) [nM] | Primary assay EC50 (cAMP), Mean pM GLP-1R (GLP-1 receptor) [pM] | Primary assay EC50 (cAMP), n1 (GLP-1 receptor) [nM] | Primary assay EC50 (cAMP), n2 (GLP-1 receptor) [nM] | Primary assay EC50 (cAMP), n1 [1] [nM] | Primary assay EC50 (cAMP), n2 [1] [nM]
1 | H[Aib]EGS[αMeF]TSDV[αMeS]S[αMeF]LEGEAA[αMeK]E[αMeF]IA[αMeF]VVK([γGlu-Palmitoyl])GG-NH2 (N-terminus assumed; SMILES CCCCCCCCCCCCCCCC(=O)N[C@@H](CCC(=O)NCCCC[C@H](NC(=O)[C@@H](NC(=O)[C@@H](NC(=O)[C@](C)(Cc1ccccc1)NC(=O)[C@H](C)NC(=O)[C@@H](NC(=O)[C@](C)(Cc1ccccc1)NC(=O)[C@H](CCC(=O)O)NC(=O)[C@](C)(CCCCN)NC(=O)[C@H](C)NC(=O)[C@H](C)NC(=O)[C@H](CCC(=O)O)NC(=O)CNC(=O)[C@H](CCC(=O)O)NC(=O)[C@H](CC(C)C)NC(=O)[C@](C)(Cc1ccccc1)NC(=O)[C@H](CO)NC(=O)[C@](C)(CO)NC(=O)[C@@H](NC(=O)[C@H](CC(=O)O)NC(=O)[C@H](CO)NC(=O)[C@@H](NC(=O)[C@](C)(Cc1ccccc1)NC(=O)[C@H](CO)NC(=O)CNC(=O)[C@H](CCC(=O)O)NC(=O)C(C)(C)NC(=O)[C@@H](N)Cc1c[nH]cn1)[C@@H](C)O)C(C)C)[C@@H](C)CC)C(C)C)C(C)C)C(=O)NCC(=O)NCC(N)=O)C(=O)O) [SEQ ID NO 72] | 28 | 28 | 49 | 0.046 | 0.052 | 28 | 28
2 | H[Aib]EGS[αMeF]TSDVSS[αMeF]VEGEAA[αMeK]E[αMeF]IA[αMeF]VV[αMeK]GG-NH2 (N-terminus assumed; SMILES CC[C@H](C)[C@H](NC(=O)[C@](C)(Cc1ccccc1)NC(=O)[C@H](CCC(=O)O)NC(=O)[C@](C)(CCCCN)NC(=O)[C@H](C)NC(=O)[C@H](C)NC(=O)[C@H](CCC(=O)O)NC(=O)CNC(=O)[C@H](CCC(=O)O)NC(=O)[C@@H](NC(=O)[C@](C)(Cc1ccccc1)NC(=O)[C@H](CO)NC(=O)[C@H](CO)NC(=O)[C@@H](NC(=O)[C@H](CC(=O)O)NC(=O)[C@H](CO)NC(=O)[C@@H](NC(=O)[C@](C)(Cc1ccccc1)NC(=O)[C@H](CO)NC(=O)CNC(=O)[C@H](CCC(=O)O)NC(=O)C(C)(C)NC(=O)[C@@H](N)Cc1c[nH]cn1)[C@@H](C)O)C(C)C)C(C)C)C(=O)N[C@@H](C)C(=O)N[C@@](C)(Cc1ccccc1)C(=O)N[C@H](C(=O)N[C@H](C(=O)N[C@@](C)(CCCCN)C(=O)NCC(=O)NCC(N)=O)C(C)C)C(C)C) [SEQ ID NO 10] | 100 | 100 | 90 | 0.087 | 0.093 | 100 | 100
3 | H[Aib]EGS[αMeF]TSDV[αMeS]S[αMeF]LEGEAA[αMeK]E[αMeF]IA[αMeF]K([γGlu-Palmitoyl])V[αMeK]GG-NH2 (N-terminus assumed; SMILES CCCCCCCCCCCCCCCC(=O)N[C@@H](CCC(=O)NCCCC[C@H](NC(=O)[C@](C)(Cc1ccccc1)NC(=O)[C@H](C)NC(=O)[C@@H](NC(=O)[C@](C)(Cc1ccccc1)NC(=O)[C@H](CCC(=O)O)NC(=O)[C@](C)(CCCCN)NC(=O)[C@H](C)NC(=O)[C@H](C)NC(=O)[C@H](CCC(=O)O)NC(=O)CNC(=O)[C@H](CCC(=O)O)NC(=O)[C@H](CC(C)C)NC(=O)[C@](C)(Cc1ccccc1)NC(=O)[C@H](CO)NC(=O)[C@](C)(CO)NC(=O)[C@@H](NC(=O)[C@H](CC(=O)O)NC(=O)[C@H](CO)NC(=O)[C@@H](NC(=O)[C@](C)(Cc1ccccc1)NC(=O)[C@H](CO)NC(=O)CNC(=O)[C@H](CCC(=O)O)NC(=O)C(C)(C)NC(=O)[C@@H](N)Cc1c[nH]cn1)[C@@H](C)O)C(C)C)[C@@H](C)CC)C(=O)N[C@H](C(=O)N[C@@](C)(CCCCN)C(=O)NCC(=O)NCC(N)=O)C(C)C)C(=O)O) [SEQ ID NO 74] | 28 | 28 | 2.1 | 0.0023 | 0.002 | 28 | 28
4 | H[Aib]EGS[αMeF]TSDV[αMeS]S[αMeF]LEGEAA[αMeK]E[αMeF]IA[αMeF]VK([γGlu-Palmitoyl])[αMeK]GG-NH2 (N-terminus assumed; SMILES CCCCCCCCCCCCCCCC(=O)N[C@@H](CCC(=O)NCCCC[C@H](NC(=O)[C@@H](NC(=O)[C@](C)(Cc1ccccc1)NC(=O)[C@H](C)NC(=O)[C@@H](NC(=O)[C@](C)(Cc1ccccc1)NC(=O)[C@H](CCC(=O)O)NC(=O)[C@](C)(CCCCN)NC(=O)[C@H](C)NC(=O)[C@H](C)NC(=O)[C@H](CCC(=O)O)NC(=O)CNC(=O)[C@H](CCC(=O)O)NC(=O)[C@H](CC(C)C)NC(=O)[C@](C)(Cc1ccccc1)NC(=O)[C@H](CO)NC(=O)[C@](C)(CO)NC(=O)[C@@H](NC(=O)[C@H](CC(=O)O)NC(=O)[C@H](CO)NC(=O)[C@@H](NC(=O)[C@](C)(Cc1ccccc1)NC(=O)[C@H](CO)NC(=O)CNC(=O)[C@H](CCC(=O)O)NC(=O)C(C)(C)NC(=O)[C@@H](N)Cc1c[nH]cn1)[C@@H](C)O)C(C)C)[C@@H](C)CC)C(C)C)C(=O)N[C@@](C)(CCCCN)C(=O)NCC(=O)NCC(N)=O)C(=O)O) [SEQ ID NO 73] | 28 | 28 | 146 | 0.13 | 0.16 | 28 | 28

The remaining lines, values ahead:

Row | Primary assay EC50 (cAMP), n1 (glucagon receptor) [nM] | Primary assay EC50 (cAMP), n2 (glucagon receptor) [nM] | Primary assay EC50 (cAMP), Mean pM GLP-1R (GLP-1 receptor) [pM] | Primary assay EC50 (cAMP), n1 (GLP-1 receptor) [nM] | Primary assay EC50 (cAMP), n2 (GLP-1 receptor) [nM] | Primary assay EC50 (cAMP), n1 [1] [nM] | Primary assay EC50 (cAMP), n2 [1] [nM] | Binder
5 | 28 | 28 | 1.7 | 0.002 | 0.0014 | 28 | 28 | H[Aib]EGS[αMeF]TSDV[αMeS]S[αMeF]LEGEAA[αMeK]E[αMeF]IAK([γGlu-Palmitoyl])VV[αMeK]GG-NH2 (N-terminus assumed; SMILES CCCCCCCCCCCCCCCC(=O)N[C@@H](CCC(=O)NCCCC[C@H](NC(=O)[C@H](C)NC(=O)[C@@H](NC(=O)[C@](C)(Cc1ccccc1)NC(=O)[C@H](CCC(=O)O)NC(=O)[C@](C)(CCCCN)NC(=O)[C@H](C)NC(=O)[C@H](C)NC(=O)[C@H](CCC(=O)O)NC(=O)CNC(=O)[C@H](CCC(=O)O)NC(=O)[C@H](CC(C)C)NC(=O)[C@](C)(Cc1ccccc1)NC(=O)[C@H](CO)NC(=O)[C@](C)(CO)NC(=O)[C@@H](NC(=O)[C@H](CC(=O)O)NC(=O)[C@H](CO)NC(=O)[C@@H](NC(=O)[C@](C)(Cc1ccccc1)NC(=O)[C@H](CO)NC(=O)CNC(=O)[C@H](CCC(=O)O)NC(=O)C(C)(C)NC(=O)[C@@H](N)Cc1c[nH]cn1)[C@@H](C)O)C(C)C)[C@@H](C)CC)C(=O)N[C@H](C(=O)N[C@H](C(=O)N[C@@](C)(CCCCN)C(=O)NCC(=O)NCC(N)=O)C(C)C)C(C)C)C(=O)O) [SEQ ID NO 75]
6 | 27 | 27 | 7.2 | 0.0084 | 0.006 | 27 | 27 | H[Aib]EGS[αMeF]TSDV[αMeS]S[αMeF]LEGEAA[αMeK]E[αMeF]IK([γGlu-Palmitoyl])[αMeF]VV[αMeK]GG-NH2 (N-terminus assumed; SMILES CCCCCCCCCCCCCCCC(=O)N[C@@H](CCC(=O)NCCCC[C@H](NC(=O)[C@@H](NC(=O)[C@](C)(Cc1ccccc1)NC(=O)[C@H](CCC(=O)O)NC(=O)[C@](C)(CCCCN)NC(=O)[C@H](C)NC(=O)[C@H](C)NC(=O)[C@H](CCC(=O)O)NC(=O)CNC(=O)[C@H](CCC(=O)O)NC(=O)[C@H](CC(C)C)NC(=O)[C@](C)(Cc1ccccc1)NC(=O)[C@H](CO)NC(=O)[C@](C)(CO)NC(=O)[C@@H](NC(=O)[C@H](CC(=O)O)NC(=O)[C@H](CO)NC(=O)[C@@H](NC(=O)[C@](C)(Cc1ccccc1)NC(=O)[C@H](CO)NC(=O)CNC(=O)[C@H](CCC(=O)O)NC(=O)C(C)(C)NC(=O)[C@@H](N)Cc1c[nH]cn1)[C@@H](C)O)C(C)C)[C@@H](C)CC)C(=O)N[C@@](C)(Cc1ccccc1)C(=O)N[C@H](C(=O)N[C@H](C(=O)N[C@@](C)(CCCCN)C(=O)NCC(=O)NCC(N)=O)C(C)C)C(C)C)C(=O)O) [SEQ ID NO 76]
